The text below walks through data of paper PMC3992431 (Current biology : CB, 2014).

For data set [1], the target named is T1, actin filaments (rabbit, UniProt P68135 1-377). Put plainly: co-sedimentation.
Data set [2] concerns the molecule itself. Put plainly: two-color TIRF microscopy.
Data set [3] concerns the molecule itself. Put plainly: two-color TIRF microscopy. The source holds these as a separate data set.
Data set [4] has as its target T1, actin filaments. Kind of data set: co-sedimentation. This is another data set of the same source.

Like-named read-outs stand apart in the source and are kept apart here.

B1: INF2-FFC (domain or fragment)
chain: not shown
As a reminder, the stoichiometry N is the number of molecules, sites or subunits per partner or assembly. For the molecule B1, the “stoichiometry N” value with actin filaments [1] is 1 INF2 monomer:actin monomer.

B2: GFP-INF2-FFC (domain or fragment)
chain: not shown
In the case of B2, the “stoichiometry N” value in data set [2] was determined as 2.17 molecules; in data set [3], 2.06 molecules.

B3: INF2-FF (domain or fragment)
chain: not shown
With B3, the “fold lower affinity than INF2-FFC” value with actin filaments [4] was 5 fold.
